Measurements taken from article PMC10847431, “Evidence the Isc iron–sulfur cluster biogenesis machinery is the source of iron for [NiFe]-cofactor biosynthesis in Escherichia coli” (Scientific Reports, 2024).
“And” between values parts separate entries of the source, which are not always exact repeats. Equal values may be shown once. Each block holds one binder with its values, some of them ahead of it.

B1: HypD (natural protein, E. coli, UniProt P24192 1-373, looked up)
chain: MRFVDEYRAPEQVMQLIEHLRERASHLSYTAERPLRIMEVCGGHTHAIFKFGLDQLLPENVEFIHGPGCPVCVLPMGRIDTCVEIASHPEVIFCTFGDAMRVPGKQGSLLQAKARGADVRIVYSPMDALKLAQENPTRKVVFFGLGFETTMPTTAITLQQAKARDVQNFYFFCQHITLIPTLRSLLEQPDNGIDAFLAPGHVSMVIGTDAYNFIASDFHRPLVVAGFEPLDLLQGVVMLVQQKIAAHSKVENQYRRVVPDAGNLLAQQAIADVFCVNGDSEWRGLGVIESSGVHLTPDYQRFDAEAHFRPAPQQVCDDPRARCGEVLTGKCKPHQCPLFGNTCNPQTAFGALMVSSEGACAAWYQYRQQESEA
notes: HypD, hydrogenase maturation factor of Escherichia coli; printed mass 41,363.4 Da without and 41,715 Da with the [4Fe-4S] cluster; Carries a [4Fe-4S] cluster in all isolated complexes; No tag is named for HypD; also called native HypD; source: co-purified anoxically with it (StrepTactin Sepharose, when required Q-Sepharose)
B2: StrepII-tagged HypC (natural protein, E. coli, UniProt P0AAM3 2-90, looked up)
chain: CIGVPGQIRTIDGNQAKVDVCGIQRDVDLTLVGSCDENGQPRVGQWVLVHVGFAMSVINEAEARDTLDALQNMFDVEPDVGALLYGEEK
modifications: mixed population: unmodified species and species with +26 Da, +28 Da (CO or formyl), +16 Da (oxidation) and +136 Da (proposed Fe(CN)2CO) modifications, all associated with or dependent on the N-terminal cysteine residue (Cys2)
notes: HypC, hydrogenase maturation factor of Escherichia coli; lacks M1 (formyl-methionine lost after translation), so that Cys2 is the N-terminal residue; deconvoluted mass with the StrepII tag 10,641.5 Da; also called HypCStrep; StrepII-HypC; source: purified anoxically (StrepTactin Sepharose, when required Q-Sepharose); not shown: StrepII, C-terminal, kept

Tests used:
StrepII-tagged HypC = target: B2; assay: native MS; anaerobically isolated StrepII-tagged HypC-HypD complexes, about 10 μM, 500 mM ammonium acetate pH 6.8, nano-ESI High-Mass Q-TOF II, collision energy 30 V (90 V for CID dissociation); complexes from DHP-D, ΔsufA, ΔiscU and ΔentC-ΔfeoB strains; details: both partners purified
HypD [1] = target: B1; assay: pull-down; StrepII-tagged HypC co-produced with HypD in E. coli strains with defects in iron metabolism; anoxic StrepTactin Sepharose affinity purification; SDS-PAGE with Coomassie staining and western blots with antisera against HypD and HypC; details: partners not purified
HypD [2] = target: B1; assay: native MS; anaerobically isolated StrepII-tagged HypC-HypD complexes, about 10 μM, 500 mM ammonium acetate pH 6.8, nano-ESI High-Mass Q-TOF II, collision energy 30 V (90 V for CID dissociation); complexes from DHP-D, ΔsufA, ΔiscU and ΔentC-ΔfeoB strains; details: both partners purified

Binder: B1
stoichiometry N (StrepII-tagged HypC): 1 HypC:HypD
stoichiometry of a minor complex species (StrepII-tagged HypC): 2 HypC:HypD (2:1) and 1 HypC:HypD (2:2)

Binder: B2
binding result (HypD [1]): binds

binding result (HypD [2]): binds
B3: StrepII-tagged HypC(C2A) (natural protein, E. coli, UniProt P0AAM3 2-90, looked up)
chain: AIGVPGQIRTIDGNQAKVDVCGIQRDVDLTLVGSCDENGQPRVGQWVLVHVGFAMSVINEAEARDTLDALQNMFDVEPDVGALLYGEEK
notes: HypC of Escherichia coli with the exchange C2A (codon 2 TGC to GCG); single major species, deconvoluted mass 10,611 Da, without the modifications seen on native HypC; lacking M1 as native HypC; also called StrepII-HypCC2A; source: E. coli DHP-D (ΔhypD) carrying pT-hypDC(C2A)Strep, co-produced with HypD; purified anoxically (StrepTactin Sepharose); not shown: StrepII, C-terminal, kept
